Data on 8 molecules can be found in US20240043504A1 (published 2024).

Numbering of substitutions follows the chain as printed.

Common to all, as to assay: Luminex, supernatant
Assay [1] concerns the target T1, MERS-CoV (NCoV/Novel coronavirus) Spike Protein S1 Protein (aa 1-725, His Tag) (Sino 40069-V08B1) (MERS-CoV, UniProt K9N5Q8 18-725).
T1 sequence: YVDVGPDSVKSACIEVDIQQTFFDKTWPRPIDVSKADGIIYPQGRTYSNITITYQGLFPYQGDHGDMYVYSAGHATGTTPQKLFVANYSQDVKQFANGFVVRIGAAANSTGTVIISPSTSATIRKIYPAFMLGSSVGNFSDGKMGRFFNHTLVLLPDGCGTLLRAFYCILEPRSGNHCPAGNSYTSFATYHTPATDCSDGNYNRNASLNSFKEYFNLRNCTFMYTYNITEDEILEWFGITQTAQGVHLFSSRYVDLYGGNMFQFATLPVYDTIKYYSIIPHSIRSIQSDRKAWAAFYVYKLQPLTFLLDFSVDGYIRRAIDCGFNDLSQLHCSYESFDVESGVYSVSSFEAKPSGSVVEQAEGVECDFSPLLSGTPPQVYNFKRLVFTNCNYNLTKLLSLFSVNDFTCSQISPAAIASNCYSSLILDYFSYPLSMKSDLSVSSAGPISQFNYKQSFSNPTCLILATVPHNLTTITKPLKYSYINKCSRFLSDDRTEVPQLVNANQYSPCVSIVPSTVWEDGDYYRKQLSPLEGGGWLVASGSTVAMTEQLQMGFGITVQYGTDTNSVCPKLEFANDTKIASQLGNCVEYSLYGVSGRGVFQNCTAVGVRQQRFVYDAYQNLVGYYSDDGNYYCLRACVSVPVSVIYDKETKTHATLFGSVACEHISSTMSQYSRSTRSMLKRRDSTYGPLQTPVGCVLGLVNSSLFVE

The target in assay [2] is T2, MERS-CoV Spike Protein (ECD, aa 1-1297, His Tag) (Sino 40069-[change]) (MERS-CoV, UniProt K9N5Q8 18-1297).
T2 sequence: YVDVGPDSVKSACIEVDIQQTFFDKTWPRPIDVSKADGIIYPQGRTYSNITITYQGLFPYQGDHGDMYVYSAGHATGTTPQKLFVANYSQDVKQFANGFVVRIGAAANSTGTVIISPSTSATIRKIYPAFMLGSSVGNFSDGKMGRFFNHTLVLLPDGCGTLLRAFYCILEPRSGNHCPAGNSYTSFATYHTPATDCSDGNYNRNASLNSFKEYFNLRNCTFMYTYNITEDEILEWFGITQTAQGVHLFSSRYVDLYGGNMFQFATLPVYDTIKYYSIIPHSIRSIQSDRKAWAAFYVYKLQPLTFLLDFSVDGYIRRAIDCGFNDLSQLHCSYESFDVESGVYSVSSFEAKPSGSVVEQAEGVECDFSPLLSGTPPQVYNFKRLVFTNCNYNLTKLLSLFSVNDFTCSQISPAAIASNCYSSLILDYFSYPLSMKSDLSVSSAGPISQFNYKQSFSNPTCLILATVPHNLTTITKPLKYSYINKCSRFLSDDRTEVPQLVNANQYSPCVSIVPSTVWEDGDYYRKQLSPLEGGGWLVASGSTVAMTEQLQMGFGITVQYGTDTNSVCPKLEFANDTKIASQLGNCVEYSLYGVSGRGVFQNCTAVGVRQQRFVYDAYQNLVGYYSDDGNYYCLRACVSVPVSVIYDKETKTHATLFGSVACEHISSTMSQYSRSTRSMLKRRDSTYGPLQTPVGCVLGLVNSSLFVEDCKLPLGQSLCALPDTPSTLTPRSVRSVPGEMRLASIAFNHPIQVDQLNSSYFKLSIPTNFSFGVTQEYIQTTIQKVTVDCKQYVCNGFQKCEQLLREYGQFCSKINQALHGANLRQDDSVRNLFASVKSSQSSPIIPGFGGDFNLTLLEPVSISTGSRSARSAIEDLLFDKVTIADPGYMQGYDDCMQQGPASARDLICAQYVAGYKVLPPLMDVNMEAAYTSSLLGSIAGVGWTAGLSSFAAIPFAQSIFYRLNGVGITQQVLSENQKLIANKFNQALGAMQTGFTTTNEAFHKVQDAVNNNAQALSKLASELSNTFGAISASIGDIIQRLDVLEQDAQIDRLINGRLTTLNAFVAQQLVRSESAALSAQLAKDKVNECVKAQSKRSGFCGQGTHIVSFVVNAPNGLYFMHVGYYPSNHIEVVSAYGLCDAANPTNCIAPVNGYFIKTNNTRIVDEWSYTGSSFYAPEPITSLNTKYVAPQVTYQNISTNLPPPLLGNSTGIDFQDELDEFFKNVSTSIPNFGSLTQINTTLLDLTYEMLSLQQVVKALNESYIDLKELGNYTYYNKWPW

The target of assay [3] is T3, MERS-CoV (NCoV/Novel coronavirus) Spike Protein fragment (RBD, aa 367-606, His Tag) (Sino 40071-V08B1) (MERS-CoV, UniProt K9N5Q8 367-606).
T3 sequence: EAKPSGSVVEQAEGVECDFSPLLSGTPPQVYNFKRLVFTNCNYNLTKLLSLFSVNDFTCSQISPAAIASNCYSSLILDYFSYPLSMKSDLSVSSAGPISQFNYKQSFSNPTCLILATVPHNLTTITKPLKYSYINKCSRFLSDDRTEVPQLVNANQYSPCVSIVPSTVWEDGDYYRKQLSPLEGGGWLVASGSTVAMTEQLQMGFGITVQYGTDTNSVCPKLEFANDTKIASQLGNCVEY

Assay [4] has as its target T4, MERS-CoV Spike Protein S2 (aa 726-1296, His Tag) (Sino 40070-[change]) (MERS-CoV, UniProt K9N5Q8 726-1296).
T4 sequence: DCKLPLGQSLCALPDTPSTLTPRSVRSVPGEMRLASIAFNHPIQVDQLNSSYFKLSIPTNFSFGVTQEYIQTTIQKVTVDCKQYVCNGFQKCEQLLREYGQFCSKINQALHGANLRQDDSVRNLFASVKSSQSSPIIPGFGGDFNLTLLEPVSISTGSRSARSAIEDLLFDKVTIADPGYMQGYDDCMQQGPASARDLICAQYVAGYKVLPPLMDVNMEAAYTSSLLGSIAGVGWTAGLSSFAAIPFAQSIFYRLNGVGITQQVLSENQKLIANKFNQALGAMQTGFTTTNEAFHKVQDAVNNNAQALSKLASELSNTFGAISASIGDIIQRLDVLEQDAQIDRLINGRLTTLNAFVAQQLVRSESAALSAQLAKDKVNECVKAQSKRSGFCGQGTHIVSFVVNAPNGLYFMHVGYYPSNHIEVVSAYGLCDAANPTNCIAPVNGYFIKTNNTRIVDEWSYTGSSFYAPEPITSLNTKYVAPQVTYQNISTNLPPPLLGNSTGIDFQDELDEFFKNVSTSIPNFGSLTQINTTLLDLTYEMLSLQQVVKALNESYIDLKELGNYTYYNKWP

Assay [5] has as its target SARS-CoV-2 Spike Protein (RBD)(R319-F541).mFc (SARS-CoV-2).
In assay [6] the target is Human SARS Coronavirus Spike S1 Subunit Protein (His Tag) (Sino 40150-V08B1) (Human SARS Coronavirus, UniProt P59594 14-667).
Assay [7] concerns the target SARS-CoV-2 Spike Protein (RBD)(R319-F541).hFc (SARS-CoV-2).

B1: mAb10985 (antibody, V domains shown)
VH: EVQLVESGGGLVQPGRSLRLSCAASGFTFDDYAMHWVRQAPGKGLEWVSGISWNRGSIGYADSVKGRFTISRDNAKNSLYLQMSSLRAEDTALYYCAKDGERWDSVVVPSARNGMDVWGQGTTVTVSS
VL: QSVLTQPPSVSGAPGQRVTISCTGSSSNIGAGYDVHWYQQLPGTAPKLLIYGNSNRPSGVPDRFSGSKSGTSASLAITGLQAEDEADYYCQSYDSSLSGSYVFGTGTKVTVLG
For the molecule B1, the MFI in assay [1] stood at 22 MFI; in assay [2], 18 MFI; in assay [3], 31 MFI; in assay [4] it was 28 MFI; in assay [5], 29400 MFI; in assay [6], 22700 MFI. The MFI in assay [7] worked out at 31100 MFI.

B2: mAb10986 (antibody, V domains shown)
VH: EVQLVESGGGLVQPGGSLRLSCAASEFTVSSNYMSWVRQAPGKGLEWVSVIYSGGSTFYADSVKGRFTISRDNSKNTLYLQMNSLRAEDTAVYYCARALPYGDLHFDYWGQGTLVTVSS
VL: B1 VL with A31T, S54T, G99D
Turning to B2, the MFI in assay [1] is 20 MFI; in assay [2], 15 MFI; in assay [3], 27 MFI; in assay [4], 19 MFI; in assay [5], 28400 MFI; in assay [6], 21 MFI.

B3: mAb10913 (antibody, V domains shown)
VH: EVQLVESGGGLVQPGGSLRLSCAASGFTFRNYEMNWVRQAPGKGLEWVSYITSSGSTMYYADSVKGRFTISRDNAKNSLYLQMNSLRAEDTAVYYCARDGFYYYYAMDVWGQGTTVTVSS
VL: QSVLTQPPSVSAAPGQKVTISCSGSSSNIGNNYVSWYQQLPGTAPKLLIYDNNKRPSGIPDRFSGSKSGTSATLGITGLQTGDEADYYCGTWDSSLSVGRVFGTGTKVTVLG
Turning to B3, the MFI in assay [1] came to 26 MFI; in assay [2], 20 MFI; in assay [3], 34 MFI; in assay [4], 26 MFI; in assay [5], 33000 MFI; in assay [6], 21 MFI. In assay [7], this molecule displayed an MFI of 31900 MFI.

B4: mAb10934 (antibody, V domains shown)
VH: not shown
VL: DIQMTQSPSSLSASVGDRVTITCQASQDIWNYINWYQQKPGKAPKLLIYDASNLKTGVPSRFSGSGSGTDFTFTISSLQPEDIATYYCQQHDDLPPTFGQGTKVEIKR
With B4, the MFI in assay [1] was determined as 20 MFI; in assay [2], 15 MFI; in assay [3], 24 MFI; in assay [5], 34300 MFI; in assay [7], 35800 MFI.

B5: mAb10935 (antibody, V domains shown)
VH: EVQLVESGGGLVQPGGSLRLSCAASGFTVSSNYMSWVRQAPGKGLEWVSLIYSGGSTYYADSVKGRFTISRHNSKNTLYLQMNSLRSEDTAVYYCARVPLGDYYYGMDVWGQGTTVTVSS
VL: B4 VL with W30N, N31K, I33L, K55E, H91S, D93N, P96L, Q100G
In the case of B5, the MFI in assay [2] was determined as 15 MFI; in assay [3], 25 MFI; in assay [4] it was 18 MFI; in assay [5], 35900 MFI; in assay [6] it was 21 MFI; in assay [7] it was 35600 MFI.

B6: mAb10921 (antibody, V domains shown)
VH: EVQLVESGGGLVQPGGSLRLSCAASGITVSSNYMSWVRQAPGKGLEWVSVIYSGGSTFYADSVKGRFTISRHNSKNTLYLQMNSLRAEDTAVYYCARERNFDAFDIWGQGTMVTVSS
VL: DIQMTQSPSSVSASVGDRVTITCRASQGISSWLAWYQQKPGKAPKLLIYAASSLQSGVPSRFSGSGSGTDFTLTISSLQPEDFATYYCQQANSFPLFTFGPGTKVDIKR
For the molecule B6, the MFI in assay [2] worked out at 19 MFI; in assay [3], 23 MFI; in assay [4] it was 19 MFI; in assay [5], 19400 MFI; in assay [6], 19 MFI; in assay [7], 22300 MFI.

B7: mAb10914 (antibody, V domains shown)
VH: EVQLVESGGGLVQPGGSLRLSCAASGLIVSRNYMIWVRQAPGKGLEWVSVIYSGGSTFYADSVKGRFTISRHNSKNTLYLQMNSLRAEDTAVYYCARDLGTGGMDVWGQGTTVTVSS
VL: DIQLTQSPSFLSASVGDRVTITCWASQGISSYLAWYQQKPGKAPKLLIYAASTLQSGVPSRFSGSGSGTEFTLTISSLQPEDFATYYCQQLNSYPLTFGGGTKVEIKR
In the case of B7, the MFI in assay [1] came to 23 MFI; in assay [2], 19 MFI; in assay [3] it was 31 MFI; in assay [4] it was 28 MFI; in assay [5], 30700 MFI; in assay [6] it was 22 MFI. In addition, in assay [7], the MFI came out at 30500 MFI.

B8: mAb10936 (antibody, V domains shown)
VH: QVQLVESGGGVVQPGRSLRLSCAASGFTFRNYGMHWVRQAPGKGLEWVSVIWYDGSNRYYADSVKGRFTISRDTSKNTLYLQMNSLRAEDTAVYYCARDPPITGTTGGDAFDIWGQGTMVTVSS
VL: not shown
On to B8, for which the MFI in assay [1] is 20 MFI; in assay [2], 19 MFI; in assay [3], 29 MFI; in assay [4], 21 MFI; in assay [5] it was 33700 MFI; in assay [6] it was 20 MFI. In addition, the MFI in assay [7] is 33900 MFI.
